From publication PMC7789814, “The influence of various regions of the FOXP2 sequence on its structure and DNA-binding function”

Assays:
FOXP1 LZ-END [1] = assay: SEC; 20 µM protein incubated at 20°C for at least 30 min; Superdex 200 10/300 GL; running buffer 500 mM NaCl, 10 mM HEPES pH 7.5, 2 mM DTT; calibrated with 12-200 kDa markers; oligomer size predicted from the monomeric size
FOXP2 LZ-END [2] = assay: as above
FOXP2 FHD-END [3] = assay: SEC; 20 µM protein incubated at 20°C for at least 30 min; HiLoad 16/60 Superdex 75 prep grade; running buffer 500 mM NaCl, 10 mM HEPES pH 7.5, 2 mM DTT; calibrated with 12-200 kDa markers; oligomer size predicted from the monomeric size
FOXP1 LZ-END [4] = target: T1, FOXP1 LZ-END (UniProt Q9H334 332-677); assay: fluorescence anisotropy; FA: 10 mM HEPES pH 7.5, 100 mM NaCl, 0.02% NaN3, 500 nM DNA, temperature not stated; EMSA: 10 mM HEPES pH 7.5, 1 mM MgCl2, 100 mM KCl, 10% glycerol, 0.1 mg/ml BSA, 500 nM DNA, on ice, gel at 4 C; conditions: protein: recombinant; (purified by nickel IMAC); chain copies: 4; blunt
T1 sequence: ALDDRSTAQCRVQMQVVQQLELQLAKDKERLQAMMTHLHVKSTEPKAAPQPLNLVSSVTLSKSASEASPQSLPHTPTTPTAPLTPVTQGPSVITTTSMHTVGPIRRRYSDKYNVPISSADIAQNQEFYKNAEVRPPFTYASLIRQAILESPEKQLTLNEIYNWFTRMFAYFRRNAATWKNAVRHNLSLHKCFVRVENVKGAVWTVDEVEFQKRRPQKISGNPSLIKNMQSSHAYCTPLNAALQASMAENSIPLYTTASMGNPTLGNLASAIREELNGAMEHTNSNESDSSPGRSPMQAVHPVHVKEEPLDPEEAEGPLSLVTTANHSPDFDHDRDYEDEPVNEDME

FOXP2 LZ-FHD = target: T2, FOXP2 LZ-FHD (UniProt O15409 372-594); assay: as above; conditions: protein: recombinant; (purified by nickel IMAC); chain copies: 2; blunt
T2 sequence: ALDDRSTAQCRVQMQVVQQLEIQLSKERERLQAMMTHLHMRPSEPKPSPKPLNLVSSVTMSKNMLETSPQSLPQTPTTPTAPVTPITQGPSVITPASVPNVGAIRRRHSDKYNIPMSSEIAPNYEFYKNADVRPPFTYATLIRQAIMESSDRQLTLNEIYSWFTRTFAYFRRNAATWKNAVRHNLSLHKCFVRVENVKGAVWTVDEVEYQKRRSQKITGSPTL

FOXP2 LZ-END [5] = target: T3, FOXP2 LZ-END (UniProt O15409 372-715); assay: as above; conditions: protein: recombinant; (purified by nickel IMAC); chain copies: 8; blunt
T3 sequence: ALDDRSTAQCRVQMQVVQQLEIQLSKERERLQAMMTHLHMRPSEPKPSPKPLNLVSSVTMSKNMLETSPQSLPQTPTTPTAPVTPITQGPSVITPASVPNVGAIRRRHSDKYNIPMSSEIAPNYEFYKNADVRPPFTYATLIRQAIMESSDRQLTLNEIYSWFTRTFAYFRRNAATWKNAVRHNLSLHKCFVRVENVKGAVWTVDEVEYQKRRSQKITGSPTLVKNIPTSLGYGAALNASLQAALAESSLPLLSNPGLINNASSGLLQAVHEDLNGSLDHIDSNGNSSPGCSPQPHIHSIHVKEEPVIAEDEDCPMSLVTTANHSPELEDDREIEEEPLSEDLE

FOXP2 FHD = target: T4, FOXP2 FHD (UniProt O15409 504-594); assay: as above; conditions: protein: recombinant; (purified by nickel IMAC); blunt
T4 sequence: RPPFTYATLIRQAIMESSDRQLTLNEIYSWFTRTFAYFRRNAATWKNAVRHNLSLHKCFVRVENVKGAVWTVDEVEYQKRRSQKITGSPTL

FOXP1 LZ-FHD = target: T5, FOXP1 LZ-FHD (UniProt Q9H334 332-555); assay: as above; conditions: protein: recombinant; chain copies: 2; blunt
T5 sequence: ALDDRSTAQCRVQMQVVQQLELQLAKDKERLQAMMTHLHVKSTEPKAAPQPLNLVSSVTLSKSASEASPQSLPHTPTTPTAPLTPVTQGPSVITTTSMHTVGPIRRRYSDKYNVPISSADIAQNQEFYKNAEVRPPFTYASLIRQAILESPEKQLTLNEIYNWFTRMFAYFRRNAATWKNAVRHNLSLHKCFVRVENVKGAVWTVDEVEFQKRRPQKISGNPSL

FOXP2 FHD-END [6] = target: T6, FOXP2 FHD-END (UniProt O15409 504-715); assay: as above; conditions: protein: recombinant; (purified by nickel IMAC); chain copies: 2; blunt
T6 sequence: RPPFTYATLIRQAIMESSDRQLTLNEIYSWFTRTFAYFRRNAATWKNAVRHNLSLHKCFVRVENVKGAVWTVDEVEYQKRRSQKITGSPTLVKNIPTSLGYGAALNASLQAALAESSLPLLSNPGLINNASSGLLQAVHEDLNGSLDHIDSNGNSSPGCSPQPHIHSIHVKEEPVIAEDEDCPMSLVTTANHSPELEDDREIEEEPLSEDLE

FOXP1 LZ-END (domain or fragment)
percent of the species in the larger oligomer (FOXP1 LZ-END [1]): 60% | stoichiometry N (FOXP1 LZ-END [1]): 4

FOXP2 LZ-END (domain or fragment)
percent of the species in the larger oligomer (FOXP2 LZ-END [2]): 70% | stoichiometry N (FOXP2 LZ-END [2]): < 8

FOXP2 FHD-END (domain or fragment)
stoichiometry N (FOXP2 FHD-END [3]): 2

B1: FOXP2 cognate DNA, ROX-labelled (dsDNA)
DNA 1: TTAGGTGTTTACTTTCATAG
DNA 2: CTATGAAAGTAAACACCTAA
Kd (FOXP1 LZ-END [4]): 1.28 ± 0.0704 µM | Kd (FOXP2 LZ-FHD): 0.347 ± 0.0554 µM | Kd (FOXP2 LZ-END [5]): 0.326 ± 0.0732 µM | Kd (FOXP2 FHD): 1.746 ± 0.0159 µM | Kd (FOXP1 LZ-FHD): 0.766 ± 0.0121 µM | Kd (FOXP2 FHD-END [6]): 1.9 ± 0.0251 µM
